# Measurements from IntAct's records for PubMed 25910212.
# B1: Beta-crystallin A4 (Homo sapiens), P53673 (parent)
# chain: MTLQCTKSAGPWKMVVWDEDGFQGRRHEFTAECPSVLELGFETVRSLKVLSGAWVGFEHAGFQGQQYILERGEYPSWDAWGGNTAYPAERLTSFRPAACANHRDSRLTIFEQENFLGKKGELSDDYPSLQAMGWEGNEVGSFHVHSGAWVCSQFPGYRGFQYVLECDHHSGDYKHFREWGSHAPTFQVQSIRRIQQ
# B2: Keratin, type II cytoskeletal 6A (Homo sapiens), P02538 (parent)
# chain: MASTSTTIRSHSSSRRGFSANSARLPGVSRSGFSSVSVSRSRGSGGLGGACGGAGFGSRSLYGLGGSKRISIGGGSCAISGGYGSRAGGSYGFGGAGSGFGFGGGAGIGFGLGGGAGLAGGFGGPGFPVCPPGGIQEVTVNQSLLTPLNLQIDPTIQRVRAEEREQIKTLNNKFASFIDKVRFLEQQNKVLETKWTLLQEQGTKTVRQNLEPLFEQYINNLRRQLDSIVGERGRLDSELRGMQDLVEDFKNKYEDEINKRTAAENEFVTLKKDVDAAYMNKVELQAKADTLTDEINFLRALYDAELSQMQTHISDTSVVLSMDNNRNLDLDSIIAEVKAQYEEIAQRSRAEAESWYQTKYEELQVTAGRHGDDLRNTKQEIAEINRMIQRLRSEIDHVKKQCANLQAAIADAEQRGEMALKDAKNKLEGLEDALQKAKQDLARLLKEYQELMNVKLALDVEIATYRKLLEGEECRLNGEGVGQVNISVVQSTVSSGYGGASGVGSGLGLGGGSSYSYGSGLGVGGGFSSSSGRAIGGGLSSVGGGSSTIKYTTTSSSSRKSYKH
# partner: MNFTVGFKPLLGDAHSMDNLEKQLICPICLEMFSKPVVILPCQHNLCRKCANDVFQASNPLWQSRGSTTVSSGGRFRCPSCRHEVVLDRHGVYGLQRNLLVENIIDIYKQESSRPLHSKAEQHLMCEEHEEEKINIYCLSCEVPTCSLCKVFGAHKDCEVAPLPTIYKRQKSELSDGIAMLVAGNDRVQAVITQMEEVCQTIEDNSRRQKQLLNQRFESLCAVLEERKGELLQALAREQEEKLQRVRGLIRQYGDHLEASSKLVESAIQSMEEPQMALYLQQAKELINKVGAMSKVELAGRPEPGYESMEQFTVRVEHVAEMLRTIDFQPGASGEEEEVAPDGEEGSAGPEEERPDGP
# B3: Myozenin-2 (Homo sapiens), Q9NPC6 (parent)
# chain: MLSHNTMMKQRKQQATAIMKEVHGNDVDGMDLGKKVSIPRDIMLEELSHLSNRGARLFKMRQRRSDKYTFENFQYQSRAQINHSIAMQNGKVDGSNLEGGSQQAPLTPPNTPDPRSPPNPDNIAPGYSGPLKEIPPEKFNTTAVPKYYQSPWEQAISNDPELLEALYPKLFKPEGKAELPDYRSFNRVATPFGGFEKASRMVKFKVPDFELLLLTDPRFMSFVNPLSGRRSFNRTPKGWISENIPIVITTEPTDDTTVPESEDL
# B4: E3 ubiquitin-protein ligase Midline-1 (Homo sapiens), O15344 (parent)
# chain: METLESELTCPICLELFEDPLLLPCAHSLCFNCAHRILVSHCATNESVESITAFQCPTCRHVITLSQRGLDGLKRNVTLQNIIDRFQKASVSGPNSPSETRRERAFDANTMTSAEKVLCQFCDQDPAQDAVKTCVTCEVSYCDECLKATHPNKKPFTGHRLIEPIPDSHIRGLMCLEHEDEKVNMYCVTDDQLICALCKLVGRHRDHQVAALSERYDKLKQNLESNLTNLIKRNTELETLLAKLIQTCQHVEVNASRQEAKLTEECDLLIEIIQQRRQIIGTKIKEGKVMRLRKLAQQIANCKQCIERSASLISQAEHSLKENDHARFLQTAKNITERVSMATASSQVLIPEINLNDTFDTFALDFSREKKLLECLDYLTAPNPPTIREELCTASYDTITVHWTSDDEFSVVSYELQYTIFTGQANVVSLCNSADSWMIVPNIKQNHYTVHGLQSGTKYIFMVKAINQAGSRSSEPGKLKTNSQPFKLDPKSAHRKLKVSHDNLTVERDESSSKKSHTPERFTSQGSYGVAGNVFIDSGRHYWEVVISGSTWYAIGLAYKSAPKHEWIGKNSASWALCRCNNNWVVRHNSKEIPIEPAPHLRRVGILLDYDNGSIAFYDALNSIHLYTFDVAFAQPVCPTFTVWNKCLTIITGLPIPDHLDCTEQLP
# partner: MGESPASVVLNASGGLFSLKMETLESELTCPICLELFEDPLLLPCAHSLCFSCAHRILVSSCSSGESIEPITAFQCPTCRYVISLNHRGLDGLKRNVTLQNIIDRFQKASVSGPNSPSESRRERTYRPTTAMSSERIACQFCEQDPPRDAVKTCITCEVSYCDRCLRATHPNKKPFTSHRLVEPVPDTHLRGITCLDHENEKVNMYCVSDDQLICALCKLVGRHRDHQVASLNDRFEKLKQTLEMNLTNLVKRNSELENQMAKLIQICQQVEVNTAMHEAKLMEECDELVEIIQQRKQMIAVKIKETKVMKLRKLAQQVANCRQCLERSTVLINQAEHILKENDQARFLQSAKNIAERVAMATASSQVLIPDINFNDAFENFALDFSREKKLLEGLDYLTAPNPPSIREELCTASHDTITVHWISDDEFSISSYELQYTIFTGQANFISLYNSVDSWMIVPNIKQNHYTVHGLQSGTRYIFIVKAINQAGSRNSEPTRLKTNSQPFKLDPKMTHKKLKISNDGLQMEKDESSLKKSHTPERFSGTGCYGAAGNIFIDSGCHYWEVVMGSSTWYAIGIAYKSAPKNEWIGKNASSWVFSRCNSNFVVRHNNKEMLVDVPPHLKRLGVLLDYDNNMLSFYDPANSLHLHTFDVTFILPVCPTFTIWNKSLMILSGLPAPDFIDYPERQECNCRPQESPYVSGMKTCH
# B5: Estrogen receptor beta (Homo sapiens), Q92731-3 (parent)
# chain: MDIKNSPSSLNSPSSYNCSQSILPLEHGSIYIPSSYVDSHHEYPAMTFYSPAVMNYSIPSNVTNLEGGPGRQTTSPNVLWPTPGHLSPLVVHRQLSHLYAEPQKSPWCEARSLEHTLPVNRETLKRKVSGNRCASPVTGPGSKRDAHFCAVCSDYASGYHYGVWSCEGCKAFFKRSIQGHNDYICPATNQCTIDKNRRKSCQACRLRKCYEVGMVKCGSRRERCGYRLVRRQRSADEQLHCAGKAKRSGGHAPRVRELLLDALSPEQLVLTLLEAEPPHVLISRPSAPFTEASMMMSLTKLADKELVHMISWAKKIPGMRGNA
# partner: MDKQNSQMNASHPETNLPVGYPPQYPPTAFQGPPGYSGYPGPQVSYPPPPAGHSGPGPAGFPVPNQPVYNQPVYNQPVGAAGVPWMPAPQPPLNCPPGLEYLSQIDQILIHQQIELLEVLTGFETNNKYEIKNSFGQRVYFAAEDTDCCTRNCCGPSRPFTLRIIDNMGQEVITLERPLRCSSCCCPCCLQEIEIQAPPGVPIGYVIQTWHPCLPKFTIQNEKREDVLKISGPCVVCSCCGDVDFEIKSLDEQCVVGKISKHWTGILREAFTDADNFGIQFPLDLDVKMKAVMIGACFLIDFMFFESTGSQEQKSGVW
# B6: U4/U6 small nuclear ribonucleoprotein Prp3 (Homo sapiens), O43395 (parent)
# chain: MALSKRELDELKPWIEKTVKRVLGFSEPTVVTAALNCVGKGMDKKKAADHLKPFLDDSTLRFVDKLFEAVEEGRSSRHSKSSSDRSRKRELKEVFGDDSEISKESSGVKKRRIPRFEEVEEEPEVIPGPPSESPGMLTKLQIKQMMEAATRQIEERKKQLSFISPPTPQPKTPSSSQPERLPIGNTIQPSQAATFMNDAIEKARKAAELQARIQAQLALKPGLIGNANMVGLANLHAMGIAPPKVELKDQTKPTPLILDEQGRTVDATGKEIELTHRMPTLKANIRAVKREQFKQQLKEKPSEDMESNTFFDPRVSIAPSQRQRRTFKFHDKGKFEKIAQRLRTKAQLEKLQAEISQAARKTGIHTSTRLALIAPKKELKEGDIPEIEWWDSYIIPNGFDLTEENPKREDYFGITNLVEHPAQLNPPVDNDTPVTLGVYLTKKEQKKLRRQTRREAQKELQEKVRLGLMPPPEPKVRISNLMRVLGTEAVQDPTKVEAHVRAQMAKRQKAHEEANAARKLTAEQRKVKKIKKLKEDISQGVHISVYRVRNLSNPAKKFKIEANAGQLYLTGVVVLHKDVNVVVVEGGPKAQKKFKRLMLHRIKWDEQTSNTKGDDDEESDEEAVKKTNKCVLVWEGTAKDRSFGEMKFKQCPTENMAREHFKKHGAEHYWDLALSESVLESTD
# partner: B4 partner
# Variants of: B1
# Settings: with ikzf3_human IKZF3, Q9UKT9
# ikzf3_human IKZF3, Q9UKT9, sequence (Q9UKT9 whole entry): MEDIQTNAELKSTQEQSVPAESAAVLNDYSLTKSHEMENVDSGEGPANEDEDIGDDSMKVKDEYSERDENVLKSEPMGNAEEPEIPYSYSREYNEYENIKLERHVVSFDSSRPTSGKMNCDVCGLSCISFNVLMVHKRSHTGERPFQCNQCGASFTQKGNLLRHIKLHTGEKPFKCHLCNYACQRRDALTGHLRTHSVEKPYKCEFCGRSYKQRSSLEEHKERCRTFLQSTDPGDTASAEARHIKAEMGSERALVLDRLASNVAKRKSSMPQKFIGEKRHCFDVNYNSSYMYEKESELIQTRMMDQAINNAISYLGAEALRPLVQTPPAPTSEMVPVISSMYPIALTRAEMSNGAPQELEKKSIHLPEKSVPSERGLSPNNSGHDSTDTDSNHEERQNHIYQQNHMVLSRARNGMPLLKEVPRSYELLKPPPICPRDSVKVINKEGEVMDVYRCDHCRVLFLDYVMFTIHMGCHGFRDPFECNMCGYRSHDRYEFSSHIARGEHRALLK
row,Variant,effect of a mutation on the interaction
1,L69P,disrupting interaction strength

# Variants of: B1
# Settings: with trip6_human TRIP6, Q15654
# trip6_human TRIP6, Q15654, sequence (Q15654 whole entry): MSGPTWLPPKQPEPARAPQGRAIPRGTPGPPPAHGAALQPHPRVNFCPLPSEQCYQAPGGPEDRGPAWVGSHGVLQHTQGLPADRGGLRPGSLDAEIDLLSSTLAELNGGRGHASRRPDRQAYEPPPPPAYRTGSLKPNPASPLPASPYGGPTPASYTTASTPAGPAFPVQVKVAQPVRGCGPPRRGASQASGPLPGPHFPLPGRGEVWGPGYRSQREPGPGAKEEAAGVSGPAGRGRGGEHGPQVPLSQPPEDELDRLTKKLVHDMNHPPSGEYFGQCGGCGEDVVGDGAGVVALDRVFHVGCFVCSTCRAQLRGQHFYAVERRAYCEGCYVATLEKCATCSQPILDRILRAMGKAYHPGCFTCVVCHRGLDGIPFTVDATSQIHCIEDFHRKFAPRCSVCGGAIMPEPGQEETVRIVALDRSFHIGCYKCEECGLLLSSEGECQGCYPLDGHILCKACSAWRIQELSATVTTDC
row,Variant,effect of a mutation on the interaction
1,L69P,disrupting interaction strength

# Variants of: B1
# Settings: with gli1_human GLI1, P08151
row,Variant,effect of a mutation on the interaction
1,L69P,disrupting interaction strength

# Variants of: B1
# Settings: with ccd33_human CCDC33, Q8N5R6
# ccd33_human CCDC33, Q8N5R6, sequence (Q8N5R6 whole entry): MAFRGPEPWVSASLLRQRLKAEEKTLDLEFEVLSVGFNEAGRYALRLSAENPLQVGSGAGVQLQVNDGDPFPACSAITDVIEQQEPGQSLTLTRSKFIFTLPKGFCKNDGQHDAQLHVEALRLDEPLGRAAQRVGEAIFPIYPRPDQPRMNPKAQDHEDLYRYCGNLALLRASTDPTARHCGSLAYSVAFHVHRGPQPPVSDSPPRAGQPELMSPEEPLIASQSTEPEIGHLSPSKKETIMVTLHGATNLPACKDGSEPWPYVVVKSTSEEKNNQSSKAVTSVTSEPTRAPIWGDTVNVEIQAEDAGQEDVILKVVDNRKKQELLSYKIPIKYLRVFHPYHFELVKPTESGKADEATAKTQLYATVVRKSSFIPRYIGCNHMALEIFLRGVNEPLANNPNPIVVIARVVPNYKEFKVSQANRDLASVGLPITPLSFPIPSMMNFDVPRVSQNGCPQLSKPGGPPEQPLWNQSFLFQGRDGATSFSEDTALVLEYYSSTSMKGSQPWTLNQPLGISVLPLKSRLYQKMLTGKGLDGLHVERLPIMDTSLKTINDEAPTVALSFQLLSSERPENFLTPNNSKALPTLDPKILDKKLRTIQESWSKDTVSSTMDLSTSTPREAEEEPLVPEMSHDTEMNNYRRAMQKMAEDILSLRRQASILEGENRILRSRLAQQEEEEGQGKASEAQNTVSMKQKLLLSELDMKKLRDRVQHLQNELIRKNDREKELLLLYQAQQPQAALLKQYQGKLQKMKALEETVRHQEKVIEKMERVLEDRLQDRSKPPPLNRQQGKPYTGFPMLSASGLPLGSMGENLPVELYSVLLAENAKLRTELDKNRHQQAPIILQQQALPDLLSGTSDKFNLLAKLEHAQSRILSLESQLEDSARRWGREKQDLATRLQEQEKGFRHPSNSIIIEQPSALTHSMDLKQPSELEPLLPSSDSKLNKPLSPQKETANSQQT
row,Variant,effect of a mutation on the interaction
1,L69P,disrupting interaction strength

# Variants of: B2
# Settings: with tri54_human TRIM54, Q9BYV2
row,Variant,effect of a mutation on the interaction
1,T552S,with no effect
2,V523F,with no effect

# Variants of: B3
# Settings: with actn2_human ACTN2, P35609
# actn2_human ACTN2, P35609, sequence (P35609 whole entry): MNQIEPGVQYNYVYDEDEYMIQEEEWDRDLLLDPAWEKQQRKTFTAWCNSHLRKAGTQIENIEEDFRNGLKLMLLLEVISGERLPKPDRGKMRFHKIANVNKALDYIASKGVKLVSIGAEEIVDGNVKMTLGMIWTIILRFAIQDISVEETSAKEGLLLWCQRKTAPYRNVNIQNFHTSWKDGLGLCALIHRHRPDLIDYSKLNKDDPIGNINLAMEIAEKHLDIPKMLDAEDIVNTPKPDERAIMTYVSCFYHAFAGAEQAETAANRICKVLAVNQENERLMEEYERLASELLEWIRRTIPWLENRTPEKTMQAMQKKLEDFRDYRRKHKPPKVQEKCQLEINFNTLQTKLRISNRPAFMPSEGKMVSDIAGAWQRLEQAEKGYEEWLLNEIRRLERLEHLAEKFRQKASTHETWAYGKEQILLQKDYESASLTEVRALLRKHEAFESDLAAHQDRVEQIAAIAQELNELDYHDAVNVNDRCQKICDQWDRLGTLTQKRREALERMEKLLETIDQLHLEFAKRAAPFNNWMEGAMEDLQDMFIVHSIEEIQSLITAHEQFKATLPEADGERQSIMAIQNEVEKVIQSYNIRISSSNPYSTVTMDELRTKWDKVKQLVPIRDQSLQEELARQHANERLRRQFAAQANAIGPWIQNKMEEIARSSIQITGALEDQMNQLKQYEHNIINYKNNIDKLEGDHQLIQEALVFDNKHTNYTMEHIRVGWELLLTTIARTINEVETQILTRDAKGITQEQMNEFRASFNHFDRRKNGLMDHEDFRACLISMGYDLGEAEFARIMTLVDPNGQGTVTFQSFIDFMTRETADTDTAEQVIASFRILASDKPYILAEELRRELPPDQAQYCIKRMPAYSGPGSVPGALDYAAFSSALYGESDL
row,Variant,effect of a mutation on the interaction
1,I246M,with no effect
2,Q10P,with no effect
3,S48P,with no effect

# Variants of: B3
# Settings: with actn1_human ACTN1, P12814
# actn1_human ACTN1, P12814, sequence (P12814 whole entry): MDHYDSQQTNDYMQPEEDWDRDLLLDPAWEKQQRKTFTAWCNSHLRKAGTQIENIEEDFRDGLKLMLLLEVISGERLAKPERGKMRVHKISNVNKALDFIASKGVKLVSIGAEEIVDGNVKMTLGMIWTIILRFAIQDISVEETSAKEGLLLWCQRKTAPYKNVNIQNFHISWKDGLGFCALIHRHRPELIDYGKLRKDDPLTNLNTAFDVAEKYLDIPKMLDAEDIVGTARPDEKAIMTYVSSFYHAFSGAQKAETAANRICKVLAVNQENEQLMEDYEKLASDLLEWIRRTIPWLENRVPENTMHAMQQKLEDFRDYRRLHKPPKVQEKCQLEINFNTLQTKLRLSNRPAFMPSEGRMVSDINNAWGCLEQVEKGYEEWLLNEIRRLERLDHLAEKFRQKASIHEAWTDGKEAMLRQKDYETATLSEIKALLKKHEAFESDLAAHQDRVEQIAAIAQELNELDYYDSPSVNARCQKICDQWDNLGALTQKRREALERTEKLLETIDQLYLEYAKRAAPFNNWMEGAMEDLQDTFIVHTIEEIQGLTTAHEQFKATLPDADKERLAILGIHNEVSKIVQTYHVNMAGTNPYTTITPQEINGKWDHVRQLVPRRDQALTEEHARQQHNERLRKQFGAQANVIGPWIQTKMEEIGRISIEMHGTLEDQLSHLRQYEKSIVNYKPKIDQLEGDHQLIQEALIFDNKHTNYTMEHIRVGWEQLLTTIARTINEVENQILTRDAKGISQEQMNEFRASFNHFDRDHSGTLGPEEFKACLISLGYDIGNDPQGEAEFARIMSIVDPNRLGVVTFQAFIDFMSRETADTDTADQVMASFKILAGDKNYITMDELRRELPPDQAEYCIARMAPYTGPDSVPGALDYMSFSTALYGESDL
row,Variant,effect of a mutation on the interaction
1,I246M,with no effect
2,Q10P,with no effect
3,S48P,with no effect

# Variants of: B3
# Settings: with actn4_human ACTN4, O43707
# actn4_human ACTN4, O43707, sequence (O43707 whole entry): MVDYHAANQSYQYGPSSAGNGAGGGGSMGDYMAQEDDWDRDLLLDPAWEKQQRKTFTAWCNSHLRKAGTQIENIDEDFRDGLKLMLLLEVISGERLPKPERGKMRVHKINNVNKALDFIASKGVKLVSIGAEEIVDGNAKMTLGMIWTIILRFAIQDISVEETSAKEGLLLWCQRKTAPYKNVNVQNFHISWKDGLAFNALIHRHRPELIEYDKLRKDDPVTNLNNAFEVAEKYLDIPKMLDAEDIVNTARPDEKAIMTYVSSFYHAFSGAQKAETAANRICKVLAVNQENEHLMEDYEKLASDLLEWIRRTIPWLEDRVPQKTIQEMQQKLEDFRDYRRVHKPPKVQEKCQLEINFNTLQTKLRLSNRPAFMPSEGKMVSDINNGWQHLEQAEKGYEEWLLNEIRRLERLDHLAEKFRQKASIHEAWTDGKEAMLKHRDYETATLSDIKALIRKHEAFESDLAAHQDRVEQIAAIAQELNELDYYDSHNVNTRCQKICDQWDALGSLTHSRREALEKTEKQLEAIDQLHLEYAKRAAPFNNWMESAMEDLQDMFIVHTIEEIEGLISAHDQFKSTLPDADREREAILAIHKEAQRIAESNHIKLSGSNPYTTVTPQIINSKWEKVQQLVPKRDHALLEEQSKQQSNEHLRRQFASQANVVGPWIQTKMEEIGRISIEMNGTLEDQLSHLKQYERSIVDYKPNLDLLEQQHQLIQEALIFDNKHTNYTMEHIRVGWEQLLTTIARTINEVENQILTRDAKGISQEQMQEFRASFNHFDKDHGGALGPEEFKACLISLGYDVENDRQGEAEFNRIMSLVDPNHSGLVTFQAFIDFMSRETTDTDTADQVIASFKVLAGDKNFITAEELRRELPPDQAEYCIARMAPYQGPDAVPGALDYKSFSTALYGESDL
row,Variant,effect of a mutation on the interaction
1,I246M,with no effect
2,Q10P,with no effect
3,S48P,with no effect

# Variants of: B4
# Settings: with MID2, Q9UJV3-2
row,Variant,effect of a mutation on the interaction
1,L626P,with no effect
2,K370E,with no effect
3,C266R,with no effect
4,P151L,with no effect

# Variants of: B5
# Settings: with pls1_human PLSCR1, O15162
row,Variant,effect of a mutation on the interaction
1,F289L,with no effect

# Variants of: B6
# Settings: with MID2, Q9UJV3-2
row,Variant,effect of a mutation on the interaction
1,P493S,with no effect
2,T494M,with no effect
3,A489D,with no effect
